Data taken from the DeepSol protein solubility set.

experiment: soluble on expression in E. coli; label from the status in PepcDB or PDB records

| Sequence | soluble on expression in E. coli |
| --- | --- |
| MAHHHHHHMLECNTNSALMEAHFGVVHADQLVPRALSSHAAAAQLSGASKPDKTPTPSLPPGPFIVMGLYGRNVLVLIADGEGQTAVQIHVTRGVAEVAETFRKVAGTPLPPPALPLEPLSVPASPPESTMVAEAAAASRLVANDEVSQERPQAPETERREDQAGPVPATVTCIVAEETDAFMAPAADIAAAAAAEAQLCKDKAAGMRGVEGVCKEVGTATPVADEERHGGPPPTKEVILTDLHKAGETAAHACSSVVVEISQGVSISAASAPRTWRWSSTTSSSASSSSFDSHASQRLRQQQQQSRLEQIGEEQAHRSGPSTGRASAPSTPTDKVVEEVAEAWPTYGAQLLESAEEVTVVPAVTPATDDAPPLMTLPAAEHAMTSQNGEGVFQAEAAIGVVEAANTKTPGEKDVHYHDDGVVSADASLHGQSLLQLPEKDLSAPEGESEKHLQLGSSLAVQFFADHTPSLLPASSSMPRPSQQQHTGDAQEASLGTEVSFDEDGVDAHRLPATLESDCEERVQHVSGADADDVAGPVIAFQASSLLASVEQRGWANQAPPVRHVAIPAGEEVAVTTAMARSATAFTPSYSPPPASPADLRAAPRVWGAQGTSYPTSGPSPCAAAVGLQHHSAATPFTNFLKAYAVYVLGTHGAASGGESKQLRNGTAPHMNECAAGAGEASRGVAELASILDFYREQPLARIMEATAIQRRCRAAWNEVIASTPASAAAQVGSDVEVCKLKASASTTVFTELCVDELVSLLAIVHYPSPRQDG | not soluble |
| MDKPQEECGILGLWSEGPVDVAGLLHLGLLALQHRGQEAAGMAVTDGKAFLVEKDLGLVNQVFTEERLGKLRLPEARLGIAHTRYSTTGSNLRINAQPLTARTAHGVLAIAHNGNFTNAKLLRDRLLLEGATFQSTSDTEVMLLLLARMGHLPLPEAAAQAMRLLQGGYSILLMNRKTLLALRDPHGVRPLVLGKAPWGYAFASEPPALLLMGAEYVRDVRPGEVVWVEEGRLQSLQALPPEPAPCAFEWIYFARPDSVLDGTEAYEARVRMGMELFREAPAEADLVVPVPDSGIGAAVGYAKASGLPLEFGLYKNPYAGRTFIQPTQELRDLKTRLKLSPTGAVKGKRVVLVDDSIVRGTTSRRIVRMLKEAGALEVHFRVSSPPIRFPCYYGIDTAARKELIAAEKSVEEIQAYIGADSLAFLSEEGVKRAIGRPVCLACFNGRYPAGVPEEGEKLALELL | soluble |
| MALLRIFDAHCDALLKLWEDPAREYTDDPAIEANAVRLMEGGVRAQCFAIFVGPNIPFDQKFQVALQQAELFHEKILKKHPQFSFIERWDDLLTLDADQIGAILTLEGADPFGDDPTKLKTLYRLGVRSLGLTWNQANLCADGVGEPRGGGLTEWGKAVVSLNNEHHVLTDVSHLSERGFWDVIEYAQFPVATHSNAKAICKHRRNLTDAQLKALIEAGGFIGIVFHPHFLTGTDDASIDDVMKHIEHICSLGGQKHVGFGSNFDGIPCFVDGLEHAGRFQWFMDELLKRYDEELVRGFAWDNFLKATPISYVEGHHHHHH | soluble |
| MIVFSSLQIRRGVRVLLDNATATINPGQKVGLVGKNGCGKSTLLALLKNEISADGGSYTFPGSWQLAWVNQETPALPQAALEYVIDGDREYRQLEAQLHDANERNDGHAIATIHGKLDAIDAWSIRSRAASLLHGLGFSNEQLERPVSDFSGGWRMRLNLAQALICRSDLLLLDEPTNHLDLDAVIWLEKWLKSYQGTLILISHDRDFLDPIVDKIIHIEQQSMFEYTGNYSSFEVQRATRLAQQQAMYESQQERVAHLQSYIDRFRAKATKAKQAQSRIKMLERMELIAPAHVDNPFRFSFRAPESLPNPLLKMEKVSAGYGDRIILDSIKLNLVPGSRIGLLGRNGAGKSTLIKLLAGELAPVSGEIGLAKGIKLGYFAQHQLEYLRADESPIQHLARLAPQELEQKLRDYLGGFGFQGDKVTEETRRFSGGEKARLVLALIVWQRPNLLLLDEPTNHLDLDMRQALTEALIEFEGALVVVSHDRHLLRSTTDDLYLVHDRKVEPFDGDLEDYQQWLSDVQKQENQTDEAPKENANSAQARKDQKRREAELRAQTQPLRKEIARLEKEMEKLNAQLAQAEEKLGDSELYDQSRKAELTACLQQQASAKSGLEECEMAWLEAQEQLEQMLLEGQSN | soluble |
| MGHHHHHHSHMHPDCGFLLNKDVGNIAKYDIRVKNLKSRLRGGKMRYQEEEARLASFRNWPFYVQGISPCVLSEAGFVFTGKQDTVQCFSCGGCLGNWEEGDDPWKEHAKWFPKCEFLRSKKSSEEITQYIQSYKGFVDITGEH | soluble |
| MAEDEPDAKSPKTGGRAPPGGAEAGEPTTLLQRLRGTISKAVQNKVEGILQDVQKFSDNDKLYLYLQLPSGPTTGDKSSEPSTLSNEEYMYAYRWIRNHLEEHTDTCLPKQSVYDAYRKYCESLACCRPLSTANFGKIIREIFPDIKARRLGGRGQSKYCYSGIRRKTLVSMPPLPGLDLKGSESPEMGPEVTPAPRDELVEAACALTCDWAERILKRSFSSIVEVARFLLQQHLISARSAHAHVLKAMGLAEEDEHAPRERSSKPKNGLENPEGGAHKKPERLAQPPKDLEARTGAGPLARGERKKSVVESSAPGANNLQVNALVARLPLLLPRAPRSLIPPIPVSPPILAPRLSSGALKVATLPLSSRAGAPPAAVPIINMILPTVPALPGPGPGPGRAPPGGLTQPRGTENREVGIGGDQGPHDKGVKRTAEVPVSEASGQAPPAKAAKQDIEDTASDAKRKRGRPRKKSGGSGERNSTPLKSAAAMESAQSSRLPWETWGSGGEGNSAGGAERPGPMGEAEKGAVLAQGQGDGTVSKGGRGPGSQHTKEAEDKIPLVPSKVSVIKGSRSQKEAFPLAKGEVDTAPQGNKDLKEHVLQSSLSQEHKDPKATPP | soluble |
| MNIDVEFHIRHNYPWNKLPANVRQSLGNSQREYEKQVVLYSIRNQLRYRNNLVKHVKKDERRYYEELLKYSRDHLMLYPYHLSDIVCYVCL | not soluble |
| MKFVNFDEYKQLVDYFRNRLNPNYSSPTMLFIISITGMRASEAFGLVWDDIDFNNNTIKCRRTWNYRNKVGGFKKPKTDAGIRDIVIDDESMQLLKDFREQQKTLFESLGIKPIHDFVCYHPYRKIITLSALQNTLDHALKKLNISTPLTVHGLRHTHASVLLYHGVDIMTVSKRLGHASVAITQQTYIHIIKELENKDKDKIIELLMELLEHHHHHH | soluble |
| MSEELSGVIIVLHKELSCRKEITDLQEISIALPDLMLSPKSKIVSDPASSKIDLNDRTTCSAEPNLFFVIFLSKNLNFSSKVFLSAVNNKSFSIQTRIT | not soluble |
| SNAMKEALATGSEAWWRTKTGPEWIREKDGNYRVTFWWRDPQGNETHSPIRRVWVYITGVTDHHQNAQPQTMARIAGTDVWRWSTALSANWRGSYCFIPTERDDVFAAFAPGETPDRNVLREGWRQLLPQAIADPLNSQSWRGGRGHAVSALEMPDAPLQPGWDRPETPYSPPLMMQWHSERLGNSRRVWILTTGDEAPEERPLAILLDGQFWAENMPVWPALASLTHQRLLPGAVYLLIDAIDTQHRSQELPCNADFWLAVQQELLPQVRAVTPFSDDAGRTVVAGQSFGGLSALYAGLNWPTRFGCVLSQSGSFWWPHRITPPEGEVITRLKTGALCARGLRIVLEAGVREPIVFQANQALYAQLNTSQQSIFWRQVDGGHDALCWRGGLTQGLMLLWQPLIDTL | soluble |
| MSLNPFQKIKSAVNKRQRFFINRTLQRKLTNQGMTVISANCVGAFILHDLHQPFNSPFVNLYLSPQDFLRYLQNIDFYLTQPLTFVQTEKSYPVGKLADLEIHFMHYHSEQEANEKWQLRTSRMKLDNLFIMMTDRDGVTEKDIQLFDQLPFKNKVIFTHKPYPAFKSAYYIKGFEKQNQVGDIFEFSGWNGKKYYDQFDYVKWFNHAEGHHHHHH | soluble |
| MYLPIFCIFLSVVDSLRILQIVPGFTNSHVLFNYRLAETLRFLGHDVKMWTQMEMAMLDTGNNKLPEGVSEYRIPIHFTDTLKTEGLKVFQSMMFESGDAHDLWWTGQEFKDMRVEACEQMLRHDESVYEDFRKDGFDVAIAHFHDLCPLAIAKKMNVKRVIWITHGTSIYEFSAVQLGLRTIPSTIPHPLSSAGFSQLFLDRVQNTLWHLSLLDFVNLPQNLLVDENLFYREFVGADQDDLWDLAKTTVPSLLINGDRMLDFPRPLPIHIAFSGELGVSKGKKLVMEKWLEDIIEKPSDGLIVFSLGTVSNTTNMPAQMINSFLGAFGKLKTYTILWRMEKSVAGAEKYENLHLVKWLPQKDIMRHPKMKLMIAHGGYNSFLEAAQAGIPAVLMPLFADQKINAKRAQRYGMATVLDKLDLTINNVYGAIKEALKPEYSTNAKKLSAMLSDQVARKPYSALRYSLKLATSPKPSLFTLKSQHLSFLEFHNLDIFSIVLLTAFIVCF | not soluble |
| MVFGENALVLKHLGSNTKIHFNAFDALAGWKQEGLPPVEVPAAAQWKFRSKPSQQVILDYDYTFTTPYCGSEVVEKDKETVEAKANPKGEATLQWENCEDQIDLAALSLKEPILFYDEVVLYEDELADNGVSLLTVKVRVMPSSWFLLLRFWLRVDGVLMRLRETRMHYRFGEDEAPTVLRENCWREATFQSLSAKGYPVDLAVWSDPSSISQRLPVIKHTTQKLKIPSKV | not soluble |
| MLDPARSFDIIGDVHGCALTLERLLDALGYKRVAGVWRHPRRQALFLGDIVDRGPRIREALHIVHDMVEAGQAFCIMGNHEYNALGWVTPALPGSGKAYVREHTPRHARLIDETLTQFAQHPGDWHDFVNWFYQLPLFIDAGRFRLVHALEHHHHHH | not soluble |
| MDVSDSIDWSKMTLQKISVRIEGHATSVSLEQPFLDILKTIARKKGQSLAFIITDIDSKRPQQVNLSSSLRIYALQSVLIQRL | not soluble |
| MGSDKIHHHHHHMNYTKMRGVEEKLVESIVRRTIDTAEARLRKYVFTPTGEKRPERKPLAKLKEEIESFLRTRENKLLVLYGLRGVGKTTMLAQIYFKLLPQIPRERLVYVSLDKLRPLGISLNYFVQAYERLLGERIEEFSQPTFLFIDEAHYDENFGITVKDLYDSASNLMIVVTGSSSLPLKLDPDLMRRAKKLRVPPLTFTEYLLLKRGLQIPEELSAALKHAFLNCDFSGVEEKLDGVLLKFTEKDVEDYLIQGSLPIYLTSKNPLEDAYEILRKIVEVDLVLEGLSETTREKALGLLLLLASGESLAYDELSSTLGLAKGTVEKLIEKLEDLEVIFPVRAYGSLGKVARKTPKYKFLAPMLRSAVLYEFGLFERDSKTLGMLLEDAVALYLHLLAKEKKLGLHYDAQKGGADFILKGQSRGIVIEVGWGKKGLRQVIKTMKKTGLNCGVVIYNGPLKKKGEVWFVPRELFLLML | not soluble |
| DAIAVWGHRPSAAKPVAIAKAAGKPVIRLEDGFVRSLDLGVNGEPPLSLVVDDCGIYYDASKPSALEKLVQDKAGNAALADQAREAMHTIVTGDLSKYNLAPAFVADESERADIVLVVDQTFNDMSVTYGNAGPHEFAAMLEAAMEENPQAEIWVKVHPDVLEGKKTGYFADLRATQRVRLIAENVSPQSLLRHVSRVYVVTSQYGFEALLAGKPVTCFGQPWYAGWGLTDDRHPQSALLSARRGSATLEELFAAAYLRYCRYIDPLTG | not soluble |
| MGSDKIHHHHHHMGHSLLFAVDVRPPHDVGVDGPRTASMCQNEVVADLKQRRPSVEQIIRIGIDTSKHVFQLHGVNAAEEPVLRKKLRRKEVVALFEKLSPTVVAIEACGGSHHWARLLQSFGHEVKLIPPQYVKPYVKRGKNDTADAEALCEAMSRPTMRFVPVKTAKQQAALMLVGLRDRLIRNRTQLANAIRGYAAEYGLIAARGMCKIEPLLERIAADKMLPDLARELFALHAKEYAQLQTQLKDVDAKLMAWHRAEACSQRLAQIPGVGPIGASLLVMKTPAPETFRSARHFAAWLGLTPKDHSTAGRVRLGVITRAGDEALRSVLVAGATAVIRHVRRGRGAVSPWLVDLLKRKPPKLAAVALANKIARIAWKLMVSGEIYGAKPMPPASARAA | not soluble |
